Tests used:
Conditions in all cases: tags: R&D Systems; chain copies: 2
[1] = target: T1, NGF (nerve growth factor) (Homo sapiens, UniProt P01138 P01138:122-241); assay: cell_activity; neurite; TF-1 0.979
[2] = target: T1, NGF (nerve growth factor); assay: cell_activity; neurite; TF-1 0.178
[3] = target: T1, NGF (nerve growth factor); assay: cell_activity; neurite; TF-1 <0.03
[4] = target: T1, NGF (nerve growth factor); assay: cell_activity; neurite; TF-1 0.021
NT-4 (neurotrophin-4) = target: T2, NT-4 (neurotrophin-4) (Homo sapiens, UniProt P34130 P34130:81-210); assay: cell_activity; TF-1
T2 sequence: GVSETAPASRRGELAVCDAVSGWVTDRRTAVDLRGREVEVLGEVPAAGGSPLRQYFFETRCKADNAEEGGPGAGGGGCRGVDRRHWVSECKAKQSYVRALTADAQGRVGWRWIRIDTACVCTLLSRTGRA
Excerpt: (§1) Using TF-1 cells, whether NGF aptamer inhibits BDNF, NT-3, NT-4 was examined. Human receptor genes (TrkB, TrkC, p75) for respective neurotrophic factors were introduced into TF-1 cells (ATCC Number: CRL-2003), which is a human erythroleukemic cell line, by using a retrovirus vector to give cells that highly express these receptors stably. TF-1 cells introduced with TrkB and p75 were used for the evaluation of inhibitory activity against BDNF, TF-1 cells introduced with TrkC and p75 were used for the evaluation against NT-3, and TF-1 cells introduced with TrkB alone were used for the evaluation against NT-4. These cells were suspended in an RPMI-1640 medium containing 20% fetal bovine serum, and seeded in a white 96 well flat-bottom plate at 1000 cells (50 μL) per well. Thereto was added a mixed solution 50 μL of human BDNF (final concentration 0.074 nM) or NT-3 (final concentration 0.074 nM) or NT-4 (final concentration 0.071 nM) and the aptamer (final concentration 1 μM-0.01 nM), which had been pre-reacted at room temperature for 30 min in a serum-free RPMI-1640 medium, 3 days later, 100 μL of CellTiter-Glo reagent for CellTiter-Glo Luminescent Cell Viability Assay (manufactured by Promega) was added to each well, chemiluminescence was measured by a microplate reader. With the amount of luminescence per well obtained by the addition of BDNF or NT-3 or NT-4 alone and culture of the cells for 3 days as inhibitory activity 0%, and that of the well obtained by culture for 3 days without addition of BDNF or NT-3 or NT-4 as inhibitory activity 100%, the inhibitory activity of the aptamer was calculated from the amount of luminescence per well obtained by culturing with the addition of BDNF or NT-3 or NT-4 and the aptamer in mixture. When the inhibitory activity was 0 or below, ‘0%’ is indicated. The 50% inhibitory concentration (IC₅₀) was determined from the concentrations at two, above and below points sandwiching the 50% inhibitory activity. An IC₅₀ value indicated as “>X” means that the inhibitory activity was not more than 50% when the indicated concentration X was the maximum measured concentration. N.D. means not measured.

NT-3 (neurotrophin-3) = target: T3, NT-3 (neurotrophin-3) (Homo sapiens, UniProt P20783 P20783:139-257); assay: cell_activity; TF-1
T3 sequence: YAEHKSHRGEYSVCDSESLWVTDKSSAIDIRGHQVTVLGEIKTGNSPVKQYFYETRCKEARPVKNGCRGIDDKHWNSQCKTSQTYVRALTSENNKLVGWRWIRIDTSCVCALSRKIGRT
Excerpt: as §1

[5] = target: T1, NGF (nerve growth factor); assay: cell_activity; neurite; TF-1 0.013
[6] = target: T1, NGF (nerve growth factor); assay: cell_activity; neurite; TF-1 0.018
Protocol: (§2) With the neurite length per cell obtained by the addition of NGF alone as inhibitory activity 0%, and that of the cell obtained by NGF free culture for 2 days as inhibitory activity 100%, the inhibitory activity of the aptamer was calculated from the neurite length per cell obtained by culturing with the addition of NGF and the aptamer in mixture.
(§3) Two NGF receptor (human TrkA and human p75) genes were introduced into TF-1 cells (ATCC Number: CRL-2003), which is a human erythroleukemic cell line, by using a retrovirus vector to give cells that highly express two receptors simultaneously and stably. The cells were suspended in an RPMI-1640 medium containing 20% fetal bovine serum, and seeded in a white 96 well flat-bottom plate at 1000 cells (50 μL) per well. […] With the amount of luminescence per well obtained by the addition of NGF alone and culture of the cells for 3 days as inhibitory activity 0%, and that of the well obtained by NGF free culture for 3 days as inhibitory activity 100%, the inhibitory activity of the aptamer was calculated from the amount of luminescence per well obtained by culturing with the addition of NGF and the aptamer in mixture.

[7] = target: T1, NGF (nerve growth factor); assay: cell_activity; neurite outgrowth inhibition; TF-1 IC50 6.924 nM
[8] = target: T1, NGF (nerve growth factor); assay: SPR; 145 mM NaCl, 5.4 mM KCl, 1.8 mM CaCl2, 0.8 mM MgCl2, 20 mM Tris pH 7.6; strong inhibition of NGF-receptor binding
[9] = target: T1, NGF (nerve growth factor); assay: SPR; neurite inhibition at 10 nM; no TF-1 inhibition
Protocol: The cells (2500 cells per well) were cultured for one day in an RPMI-1640 medium containing 2.5% horse serum and 1.25% fetal bovine serum in a 96 well flat-bottom plate coated with collagen type IV. […] Two days later, the cytoplasm and nuclei were stained using Cellomics Neurite Outgrowth Kit (manufactured by Thermo Scientific), and neurite length per cell was measured by Cellomics ArrayScan VTI (manufactured by Thermo Scientific). With the neurite length per cell obtained by the addition of NGF alone as inhibitory activity 0%, and that of the cell obtained by NGF free culture for 2 days as inhibitory activity 100%, the inhibitory activity of the aptamer was calculated from the neurite length per cell obtained by culturing with the addition of NGF and the aptamer in mixture.
Two NGF receptor (human TrkA and human p75) genes were introduced into TF-1 cells (ATCC Number: CRL-2003), which is a human erythroleukemic cell line, by using a retrovirus vector to give cells that highly express two receptors simultaneously and stably. The cells were suspended in an RPMI-1640 medium containing 20% fetal bovine serum, and seeded in a white 96 well flat-bottom plate at 1000 cells (50 μL) per well. […]

[10] = target: T1, NGF (nerve growth factor); assay: cell_activity; neurite; TF-1 0.037
[11] = target: T1, NGF (nerve growth factor); assay: cell_activity; neurite; TF-1 0.085
[12] = target: T1, NGF (nerve growth factor); assay: cell_activity; neurite; TF-1 0.022
[13] = target: T1, NGF (nerve growth factor); assay: cell_activity; neurite; TF-1 0.034
[14] = target: T1, NGF (nerve growth factor); assay: cell_activity; neurite; TF-1 0.03
[15] = target: T1, NGF (nerve growth factor); assay: cell_activity; neurite; TF-1 0.051
[16] = target: T1, NGF (nerve growth factor); assay: cell_activity; neurite; TF-1 0.084
Protocol: as §2, §3

T1 sequence (P01138 122-241, one chain of several): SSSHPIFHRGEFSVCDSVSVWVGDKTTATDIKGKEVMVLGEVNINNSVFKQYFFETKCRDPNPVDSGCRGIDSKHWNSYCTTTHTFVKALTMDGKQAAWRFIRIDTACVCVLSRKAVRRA

GGGUCCUGUUCAAGAGUUUCCGUCUCGUGAACUGUUACCC (ssRNA, 2'-F C/U, dA, 2'-OH G) [SEQ ID NO: 88]
IC50 [1]: 0.572 nM

GGGUCCUGCUCAAGAGUUUCCGUCUCGUGGGCUGUUACCC (ssRNA, as 87(4) plus 2'-OMe A15,A37; no 5' idT) [SEQ ID NO: 87(5)]
IC50 [2]: 0.078 nM

GGGUCCUGGUUAAGAGUUUCCGUCUCGUAACCUGUUACCC (ssRNA, 2'-OMe G (G8,G34 2'-OH), dA, 2'-F C/U; 5',3' idT) [SEQ ID NO: 79(1)]
IC50 [3]: 0.289 nM

B1: SEQ ID NO: 78(4) (printed 76(4) in sequence list) (ssRNA)
RNA: GGGUCCUGGCCAAGAGUUUCCGUCUCGUGGUCUGUUACCC
modifications: 2'-OMe G (G8,G34 2'-OH), dA, 2'-F C/U except 2'-OMe U4,C6,C10,C11,C21,U23,C26,U28,U31,C32,U35,C38-40; 5',3' idT
IC50 [4]: 0.037 nM
IC50 (NT-4 (neurotrophin-4)): < 100 nM
IC50 (NT-3 (neurotrophin-3)): 3 nM

GGGUCCUGAUUAAGAGUUUCCGUCUCGUAAUCUGUUACCC (ssRNA, 2'-OMe G (G8,G34 2'-OH), dA, 2'-F C/U; 5',3' idT) [SEQ ID NO: 76(1)]
IC50 [5]: 0.117 nM

GGGUCCUGGCCAAGAGUUUCCGUCUCGUGGUCUGUUACCC (ssRNA, 2'-OMe G (G8,G34 2'-OH), dA, 2'-F C/U; 5',3' idT) [SEQ ID NO: 78(1)]
IC50 [6]: 0.12 nM

GGGUCCUGGUGAUAAGUUUCCGUCUUAUCACCUGUUACCC (ssRNA, 2'-F C and U; 2'-OH G; 2'-H (deoxy) A) [SEQ ID NO: 81]
IC50 [7]: 0.765 nM

B2: SEQ ID NO: 1 (ssRNA)
RNA: GGGAGAACUUCGACCAGAAGUUGACGACCAACUCGUCUCUUAUGGAUUUACGUGAACCCGUAUGUGCGCAUACAUGGAUCCUC
modifications: 2'-F C and U; 2'-OH G; 2'-H (deoxy) A
binding result [8]: binds

B3: SEQ ID NO: 99 (ssRNA)
RNA: GGGAGAACUUCGACCAGAAGUCCAAACGGGACUUUAUACCUCUGAGUCGCCUUUGCUCCUAUGUGCGCAUACAUGGAUCCUC
modifications: 2'-F C/U, dA, 2'-OH G
binding result [9]: binds

GGGUCCUGGAUAAGAGTUUCCGUCUCGUAUCCTGUUACCC (ssRNA, as 82(48) except dT17,dT33,dU36) [SEQ ID NO: 166]
IC50 [10]: 0.113 nM

GGGUCCUGGAUAAGAGTUUCCGUCUCGUAUCCTGUUACCC (ssRNA, as 82(48) except dT17,dT33) [SEQ ID NO: 167]
IC50 [10]: 0.128 nM

GGGUCCUGACUAAGAGUUUCCGUCUCGUAGUCUGUUACCC (ssRNA, 2'-OMe G (G8,G34 2'-OH), dA, 2'-F C/U; 5',3' idT) [SEQ ID NO: 77(1)]
IC50 [5]: 0.126 nM

GGGUCCUGGAUAAGAGUUUCCGUCUCGUAUCCUGUUACCC (ssRNA, as 82(25) except 2'-OMe A15) [SEQ ID NO: 82(42)]
IC50 [4]: 0.037 nM

GGGUCCUGGAUAAGAGUUUCCGUCUCGUAUCCUGUUACCC (ssRNA, as 82(1) except 2'-OMe U4,C6,U11,C21,U23,U28,U30,C32,U35,C38-40) [SEQ ID NO: 82(21)]
IC50 [11]: < 0.1 nM
IC50 (NT-3 (neurotrophin-3)): < 30 nM

GGGUCCUGGAUAAGAGUUUCCGUCUCGUAUCCUGUUACCC (ssRNA, as 82(25) except 2'-OMe A37) [SEQ ID NO: 82(47)]
IC50 [12]: 0.046 nM

GGGUCCUGGAUAAGAGUUUCCGUCUCGUAUCCUGUUACCC (ssRNA, as 82(1) except 2'-OMe C21) [SEQ ID NO: 82(6)]
IC50 (NT-4 (neurotrophin-4)): < 3 nM
IC50 (NT-3 (neurotrophin-3)): < 30 nM
IC50 [13]: 0.128 nM

GGGUCCUGGCUAAGAGUUUCCGUCUCGUAGUCUGUUACCC (ssRNA, 2'-OMe G (G8,G34 2'-OH), dA, 2'-F C/U; 5',3' idT) [SEQ ID NO: 80(1)]
IC50 [14]: 0.271 nM

GGGUCCUGGAUAAGAGUUUCCGUCUCGUAUCCUGUUACCC (ssRNA, as 82(1) except 2'-OMe C6) [SEQ ID NO: 82(3)]
IC50 [15]: 0.255 nM
IC50 (NT-4 (neurotrophin-4)): 9.36 nM
IC50 (NT-3 (neurotrophin-3)): 42 nM

GGGUCCUGGAUAAGAGUUUCCGUCUCGUAUCCTGUUACCC (ssRNA, as 82(1) except dT33) [SEQ ID NO: 158]
IC50 [3]: 0.1 nM
IC50 (NT-4 (neurotrophin-4)): < 3 nM
IC50 (NT-3 (neurotrophin-3)): < 30 nM

GGGUCCUGGAUAAGAGUUUCCGUCUCGUAUCCUGUUACCC (ssRNA, as 82(1) except 2'-OMe C32) [SEQ ID NO: 82(13)]
IC50 (NT-4 (neurotrophin-4)): 3.06 nM
IC50 (NT-3 (neurotrophin-3)): 48.8 nM
IC50 [13]: 0.146 nM

GGGUCCUGGAUAAGAGUUUCCGUCUCGUAUCCUGUUACCC (ssRNA, as 82(25) except 2'-OMe A29) [SEQ ID NO: 82(46)]
IC50 [12]: 0.033 nM

GGGUCCUGGAUAAGAGTUUCCGUCUCGUAUCCUGUUACCC (ssRNA, as 82(1) except dT17) [SEQ ID NO: 156]
IC50 [11]: < 0.1 nM
IC50 (NT-4 (neurotrophin-4)): < 3 nM
IC50 (NT-3 (neurotrophin-3)): < 30 nM

GGGUCCUGGAUAAGAGUUUCCGUCUCGUAUCCUGUUACCC (ssRNA, as 82(1) except 2'-OMe U4,C6,U11,C21,U23,U28,U30,C31,C32,U35,C38-40) [SEQ ID NO: 82(24)]
IC50 (NT-3 (neurotrophin-3)): < 30 nM
IC50 [16]: < 0.1 nM

GGGUCCUGGAUAAGAGUUUCCGUCUCGUAUCCUGUUACCC (ssRNA, as 82(1) except 2'-OMe U4,C6,U11,C21,U23,C26,U30,C31,C32,U35,C38-40) [SEQ ID NO: 82(23)]
IC50 (NT-3 (neurotrophin-3)): < 30 nM
IC50 [16]: < 0.1 nM

B4: SEQ ID NO: 100 (ssRNA)
RNA: GGGAGAACUUCGACCAGAAGACCAAACGGACUUUAUACCUCUGAGUCGCCUAUGCUCCUAUGUGCGCAUACAUGGAUCCUC
modifications: 2'-F C/U, dA, 2'-OH G
binding result [9]: binds
